Results on 17 sequences are retold here after the DeepSol protein solubility set.

A short description of the data set: soluble on expression in E. coli; label from the status in PepcDB or PDB records.
As to “MDQLQIKDLEMFAYHGLFPSEKELGQKFIVSAILSYDMTKAATDLDLTASVHYGELCQQWTTWFQETSEDLIETVAYKLVERTFESYPLVQEMKLELKKPWAPVHLSLDTCSVTIHRRKQRAFIALGSNMGDKQANLKQAIDKLRARGIHILKESSVLATEPWGGVEQDSFANQVVEVETWLPAQDLLETLLAIESELGRVREVHWGPRLIDLDLLFVEDQILYTDDLILPHPYIAERLFVLESLQEIAPHFIHPILKQPIRNLYDALKK”, the “soluble on expression in E. coli” value is given as “soluble”.
Under “MAHHHHHHMPSRRFNARRGMIAARRGFFTATSPCRQSRLVPFHELFAPLSSSSLPSSPRRFPVHSVCVDPPLGTLGEPSRSQGAGAEDGSPLSWLRENLQLLEDGRKSLNERRASMPEGSPQWPRYMFPSHCCEYIYDPSNDSKLAFVTSDNYCHLCHEPVEVAIQHCAWWDHVTRLAAIRLIAIYPRRWSPVAVLREANEVLPTAVMVSPRPHPFLSFSEAVDTDDVSLMDMSSCYVFEREAVVRRAELAAILRVLCTAKDADSCDDAEQRISSIIPVLRESLFLSANGTPAASSGERTFRAYISRQISVFLPPMAPEPTTRIQQRCWGRKNLEIMFDLLGVASLQRIAGAPVEAVTKNEKAAVLRQIIYELATVLSEGDAEFAETSCAKINGTSSVDAEVQTRLLAEMALQRLAHELIHLHTMLLMDQAYETYVKLGYPSEGMLEKSGFC” stands “not soluble”; under “MDNILNYPTSTHVDRLVPKTAFYKHLEINTRLKMRFVEDVERIQWLYKLAPSTMNVDTGKTVHEIVMFLVTLKAEDMPDDVFLAIDRQMPRHVVFVLQYANRGRLLLNYKEWVDANKTRFNILKTFRTEWMPLAKVKLELAGSSLDNIYEAFAGQISGFGTTNAADTKQIMALQDELARKRRAAEALQKRVRNERQFAKQMELNSEARALKREIAKLEEVLKTLENN”, “not soluble”.
Under “MGSDKIHHHHHHMDFTEYQEEIIEDVKSCLESLQVQPILFMGAGISQRYIKAPDWEGLLKQLAEICPLIKRHYGYYSQTKGDNKPLIASDFCDFYAEWAWDDGKDRYPETYFEGTTPKDIYIKHEIASILNELSNSVDFSNMEYTEEVQKLRKVKPHAIITTNYDDTLEKIFDNYQAIVGHNVVKVNYSSYGEIMKIHGSSHEVESIVITNEDYVDFYKRKKYISAKLLTYFAEHPLFFFGYSINDENIKAILSDIDEIIAPNNALIPNIYLVSFSKDCEATGSHQKELLIGVGENKSIRIKVIYANDFGWIFDALSSNTPEISVNPKLVRAFLARTYTFASESLVKQELPYDFEMFRDIAEHDDALAKMYGIAELNNGQALNASFPYTMSDLARILDMGSWHYVNQEFEKLRKLTDFNIKASDNNYHVFIKSGKSGVGKYSSEALDLLRKLINGEQFELNP” stands “not soluble”.
To “MILFDKNKRILKKYAKMVSKINQIESDLRSKKNSELIRLSMVLKEKVNSFEDADEHLFEAFALVREAARRTLGMRPFDVQVMGGIALHEGKVAEMKTGEGKTLAATMPIYLNALIGKGVHLVTVNDYLARRDALWMGPVYLFLGLRVGVINSLGKSYEVVWKNPDLARKAIEENWSVWPDGFNGEVLKEESMNKEAVEAFQVELKEITRKEAYLCDVTYGTNNEFGFDYLRDNLVLDYNDKVQRGHFYAIVDEADSVLIDEARTPLIISGPSKESPSVYRRFAQIAKKFVKDKDFTVDEKARTIILTEEGVAKAEKIIGVENLYDPGNVSLLYHLINALKALHLFKKDVDYVVMNGEVIIVDEFTGRLLPGRRYSGGLHQAIEAKEGVPIKEESITYATITFQNYFRMYEKLAGMTGTAKTEESEFVQVYGMEVVVIPTHKPMIRKDHDDLVFRTQKEKYEKIVEEIEKRYKKGQPVLVGTTSIEKSELLSSMLKKKGIPHQVLNAKYHEKEAEIVAKAGQKGMVTIATNMAGRGTDIKLGPGVAELGGLCIIGTERHESRRIDNQLRGRAGRQGDPGESIFFLSLEDDLLRIFGSEQIGKVMNILKIEEGQPIQHPMLSKLIENIQKKVEGINFSIRKTLMEMDDVLDKQRRAVYSLRDQILLEKDYDEYLKDIFEDVVSTRVEEFCSGKNWDIESLKNSLSFFPAGLFDLDEKQFSSSEELHDYLFNRLWEEYQRKKQEIGEDYRKVIRFLMLRIIDDHWRRYLEEVEHVKEAVQLRSYGQKDPIVEFKKETYYMFDEMMRRINDTIANYVLRVVKVSEKDEKEAKEELGKIRLVHEEFNLVNRAMRRATEKKKKKDGLHSFGRIRVKR” belongs “soluble”; to “MTKEQIQIIKDCVPILQKNGEDLTNEFYKIMFNDYPEVKPMFNMEKQISGEQPKALAMAILMAAKNIENLENMRSFVDKVAITHVNLGVKEEHYPIVGACLLKAIKNLLNPDEATLKAWEVAYGKIAKFYIDIEKKLYDK”, “soluble”.
As to “MGKKELKRGLVVDREAQMIGVYLFEDGKTYRGIPRGKVLKKTKINAGDYVWGEVVDPNTFAIEEVEERKNLLIRPKVANVDRVIIVETLKMPEFNNYLLDNMLVVYEYFKVEPVIVFNKIDLLNEEEKKELERWIAFTGMRATTFSRLEHHHHHH”, the “soluble on expression in E. coli” value is given as “not soluble”.
Under “MFDFNDSMVSNAIIKVVGVGGGGGNAVQHMCEEVSDVEFFALNTDGQALSKSKVQNILQIGTNLTKGLGAGANPEIGKRAATEDRAKIEQLLEGADMVFITAGMGGGTGTGGAPVVAEVAKEMGILTVAVVTKPFPFEGPRRMKAAEQGIDELTKHVDSIITVPNEKLLSVLGKGASLIDAFNAANDVLGNAVKGVSELITKPGLINVDFADVRAVMTNMGLAMMGMGEASGENRAREAAEAAISSPLLEDINLDGAKGVIVNITAGMDMSIGEFEEVGEVIRSFISDEAIVIAGTVIDPDMSDSMKVTVVVTGIEKVAMKRGFGVEKTSSLQQSASSFSNKTSAPFLRKETEVVTGASNAPKTDSDDVNKSDIPSFLRRR” stands “not soluble”.
Under “HNGWTWEASLNLSANRNKLTELASGSKDDKANNWFVGHPIDCIYDYEKVGLWNSDDPDFQYLDILEPGGNEGMIKVKYTGDRDASGKPTRAIGPEDRQIISLEPKFQGGFSTRVAYKGFDLNVITAFRCGGKLISTLHHSNGYLNMLTGRRGQVDVDYWTPENKGAKYPKPGGIQSGDNPKYGSTLGYFDSSYWKVRNITLGYNFEKQAWLTRMGIQSLRAYLSVQNPFIICSPFHKETGLDPETNSYGNENVAVTEGIQKRFLTVGTNSPSTRNYLFGINLTF” stands “not soluble”.
Under “MSLALDLLLLPTWLVPVEPAGVVLREHGLGIRDGHIVFIGPRAEALKYRATEIRELPDTLLTPGLINAHGHAAMTLFRGLADDLLLMTWLEKHIWPAEAKWVDEAFVRDGTDLAIAEQIKGGITCFSDMYFFPKVASERVHNSGMRAQVAIPILDFPIPGAQNADEAIRQGVELFGDLKHHPRINITFGPHAPYTVGDENLEKIRIIAEELDAAIHMHVHETAHEVQQSVEQHGERPLARLARLGLLGPRFQAVHMTQISDDDLALLVETNTSVIHCPESNLKLASGFCPVERLWQAGVNVAVGTDGAASNNDLDLLGETRTAALLAKAVAGSATALDAHRALRMATLNGARAMGLESQVGSLEIGKAADLTAFDLSGLAQQPIYDPVSQLIYATGRDCVKHVWVAGKQLLDDRCLTRLDEHQLGATARDWARRISGHEGHHHHHH” stands “soluble”; under “MGSDKIHHHHHHMKTLSIVWAVVGLMLIGGCDQTPQAQSTQSKSMANVVGTTSANQDDLAFTPIVPGYKFEFPRDHLAHNNFRQEWWYLTANLTTETGEQLGAQWTQFRVALKPTDLQTIAPQVTDATPKSESTWATQQLYLAHSALTSSNAHLAHEKWSRRHSEFAEVKLDPYQIRLDNWHWQSETNALFPATLTVENPDFSYQLKLNSQAPLQYQGANGYSLKSRDGQVASYYYSQPFIEISGEINRNGKMERVTGQGWLDREWSSQFLTKTQQGWDWFALRLNDGSTLMLFQLRDQSPAESAKNAPISAFYSARRMFADGTGRNINSTDNPNDIQMTPLQWQHTVNGDYPVSWQVKIPSENIDITITPLNPNSAMPLSTPYWEGPVQLSGSHTGTGYMELTGY”, “not soluble”.
In the case of “MKCSWREGNKIQLLENGEQYYPAVFKAIGEAQERIILETFIWFEDNVGKQLHAALLAAAQRGVKAEVLLDGYGSPDLSDEFVNELTAAGVVFRYYDPRPRLFGMRTNVFRRMHRKIVVIDARIAFIGGLNYSAEHMSSYGPEAKQDYAVRLEGPIVEDILQFELENLPGQSAARRWWRRHHKAEENRQPGEAQVLLVWRDNEEHRDDIERHYLKMLTQAQREVIIANAYFFPGYRFLHALRKAARRGVRIKLIIQGEPDMPIVRVGARLLYNYLVKGGVQVFEYRRRPLHGKVALMDDHWATVGSSNLDPLSLSLNLEANVIIHDRHFNQTLRDNLNGIIAADCQQVDETMLPKRTWWNLTKSVLAFHFLRHFPALVGWLPAHTPRLTQVDPPAQPTMETQDRVETENTGVNP”, the “soluble on expression in E. coli” value is given as “not soluble”.
As for “MGKIVLTYRMPHNWNINPFLKEYQRLLQRAIDEIWDNTSWKEKKVKHRYSLGNEEYRYYETIRLIPYFPQSNDFKRGLRNKLLREWPFAKHYVDSAIKTAYSILKSWRQNYLKGRRKRVKPVVKRKFVRVKTTLMKVEGSKIRITIKPREEYLELDFSREWFYERIKDWKVGELIIRERDILLTFSKEVEFSGRIKIGIDSNLTSLDVYHPEKGWIRVDLSELHRISETYDRIIDMLKSIQRKAPKRIGLLLEKYWTRRRNRIEDYLNKLAVQLSREFPDAIFIFEGLNKFKMLQNGSRKFNRKLSRATWKKIVGKLSYRVPIEFVNPAYTSSTCPICGSKLESRNGLVECFNCGFKADRQFVGAFNILMRGLGVALSGVERDDLPPNEPRGELNAMRPKSVVRVDLNGRRFTHIHSLEHHHHHH”, the “soluble on expression in E. coli” value is recorded as “soluble”.
Under “MSLIDLKPKVERVDAIQSFVSQETPIVTIHDSDGASGTGYSYTIGTGGPSVMALLEQTLVPALIGKDADRIDGIWRDLLFLTHATAVGPITSLALAAIDIALWDLRCKKMGLPLWKAAGGSRDRIPLYSTEGGWLHLETAALVEDALAMKEQGFRGSKIKIGRAHLSEDRARLGAIRAAVGDSYEIMTDANQGFTLSEAIRRAKVLEEFGIGWFEEPLPADDVLSHQELSRRTHVPIAVGESMYSLSQFKDYLQVGAAQIVQVDVARIGGITPWLKVAHLAEAHSVMVCPHFLMELHLPLVCAVPNAKWLEYIPQLDGVTRQNMQISNGDAVPSDEPGLGIDWDWDAITAQEIGARSIGGAEGHHHHHH” stands “not soluble”.
For “MSLPEDYWSAKDYQRNASFVPKLTKDIVKRINLSSSDELLDLGCGDGVLTNELVSQCRRVVGIDASPDMIKAARELGLNAYVIPGEKLLDASEIPSESFDVVFSNAALHWIMRQPKNRPIVMKGVSRVLRTKGRFVAECGAFGNVSEVVGSIYSILLALGATKEQIDQANPWFFGSEDDYTRMLEEAGFHVEYVENISRPTLLNKDVREWLDTFAQHFYHAFPQWKDIIRETVYNALLVTDCRSDGKWFLQYRRLRFVAHKEEGHHHHHH”, the “soluble on expression in E. coli” value is “soluble”.
Under “MGSDKIHHHHHHMFIVSKQTTTEYGTGCFAAPSSSCQSEYNPKVENDAVAHNSISGLRGSLRRNSSNLSSQLTALQETCLADAAQIEINCSTSNAKQAFFVKIEVPTGEQGVLHFSPSSGDISQVFTPIQNGCGHGVWKFVVCTMENGSEIAHSQVSRNLDGVGILFFNVYEDLEIRLAQQEFLHISHCHTRRH” stands “not soluble”; under “MKRQLFTVLVCMTMFAVASCGEKKGKDKFEERIEKAKESVEDVVDDAKDQIEDKADEVGETLDKAKSKIEKAKKKLDEANRD”, “not soluble”.
